PMC5316958, “A combination of mutational and computational scanning guides the design of an artificial ligand-binding controlled lipase” (Scientific Reports, 2017)
Where “and” joins values, the source holds several entries; their conditions need not be identical. Equal values may be shown once.

B1: CitAP-BsLA (enzyme)
chain: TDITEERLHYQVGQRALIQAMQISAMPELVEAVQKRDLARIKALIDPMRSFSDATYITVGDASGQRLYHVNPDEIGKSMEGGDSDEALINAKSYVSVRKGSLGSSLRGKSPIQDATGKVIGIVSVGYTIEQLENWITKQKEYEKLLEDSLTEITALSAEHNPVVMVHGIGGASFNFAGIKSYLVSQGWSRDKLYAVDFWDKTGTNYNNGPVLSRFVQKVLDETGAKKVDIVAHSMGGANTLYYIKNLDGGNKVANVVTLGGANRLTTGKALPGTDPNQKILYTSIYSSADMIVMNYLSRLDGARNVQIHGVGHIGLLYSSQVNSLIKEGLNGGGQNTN

How the values were obtained:
[1] = molecular target: T1, Bacillus subtilis lipase A (BsLA) (Bacillus subtilis, UniProt P37957); test: hydrolysis of p-NPB by purified enzyme, p-nitrophenolate release at […] nm (specific activity); type: biochemical
T1 construct: gene estA; purified wild-type BsLA

[2] = molecular target: the molecule itself; test: AUC; sedimentation velocity, CitAP-BsLA 0.5 mg/ml, 10 mM glycine buffer pH 10, 10 mM NaCl, with or without 1 mM sodium citrate, 25 °C, 40 krpm; c(s) with Bayesian prior, discrete species of known mass; monomer, dimer and higher oligomers
SAXS = molecular target: the molecule itself; test: SAXS

Molecule	hydrolysis of p-NPB by purified enzyme, p-nitrophenolate release at 410 nm (spec) [1] [U/mg]	stoichiometry N [2]	Kd (SAXS)
CCCC(=O)Oc1ccc([N+](=O)[O-])cc1 [p-nitrophenylbutyrate]	181 ± 3	–	–
B1	–	2	24 µM and 29 µM
